Assay results published in the supplement of paper PMC10065799, “High-throughput profiling of sequence recognition by tyrosine kinases and SH2 domains using bacterial peptide display” (eLife, 2023).

What follows are sequences tested on Fer (mouse) (assay: phosphorylation enrichment, bacterial display (enrichment ratio); higher = better substrate or ligand; peptides without Tyr show the background).
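Note: 11-residue human phosphosite peptides and single-mutation variants displayed on the E. coli surface, counted by deep sequencing, each peptide's frequency after selection divided by its frequency in the unselected input library; frequency after pTyr selection over input frequency; kinase dosed for 20-30% of maximal phosphorylation in three min.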

Row | Sequence | phosphorylation enrichment
1 | TRNRDYDDIDD [TTYH2_Y424] | 0.438
2 | AVAFVYYKSIG [ADGRL4_Y301] | 0.53
3 | VRFTEYETQVK [TARDBP_Y155] | 0.431
4 | VCDSNYSASRW [LRP5_Y1552_D1551N] | 0.513
5 | FSVDSYDSSVR [KCNQ1_Y461_G460S] | 0.498
6 | GYRPVYSEDEQ [CHST6_Y362] | 0.643
7 | RGFRVCFTPDS [PTPRF_Y450_Y450C_YF] | 0.635
8 | YLENYYDLKKD [MMP3_Y42] | 0.759
9 | RGRSTYFWPRP [GAGE12J_Y9_YF] | 1.11
10 | YHIDHYLGKEM [G6PD_Y202_R198H] | 0.478
11 | YSKDNYKRVTG [PANK2_Y405] | 0.494
12 | FFRRHYPLTTL [TNS4_Y644] | 0.455
13 | LFQAKYQIRYR [CRLF1_Y272] | 0.325
14 | FGLDHYQCDCT [PTGS1_Y54_R53H] | 0.464
15 | IFGVSYDEYRY [CFTR_Y512] | 0.496
16 | HLVSEYQQYQD [TUBB3_Y422_D417H] | 0.72
17 | TTTQAYRVNER [PRKN_Y391_D394N] | 0.447

Row | Sequence | phosphorylation enrichment
18 | AEEEIYGIFGA [SRCtide_2014] | 3
19 | GSTLSYFGLAA [P2RX7_Y343] | 0.43
20 | RRIHSNRGHLW [VHL_Y112_Y112N] | 0.485
21 | VSGIPYGQPKQ [NEU1_Y251] | 0.44
22 | SELVCYDARVH [MET_Y971_R970C] | 0.49
23 | EKLQQYIAPGM [EPHB3_Y600] | 0.435
24 | QRPYVYYYSYL [PTEN_Y176_R173P] | 2
25 | PIPIKYKAMKK [MYD88_Y257_L252P] | 0.336
26 | FTGVEYSSCDT [EPHA3_Y937] | 0.491
27 | KNNDGYIDFAE [MCFD2_Y135_YF] | 0.559
28 | LGQRIYQYIRS [DYRK1B_Y271_Q275R] | 4.1
29 | GDDLSYGDVPP [IRS1_Y151_E147D] | 0.61
30 | ADKAAYLQSLN [MYH2_Y389] | 0.539
31 | FETVKYINNER [ABCB7_Y345_F346I_YF] | 0.424
32 | FSKRIYKGMVA [PCDH15_Y931] | 0.369
33 | FIRRDYEACKA [BBS4_Y48_K46R_YF] | 0.434

Each sequence was assayed against Fes (UniProt P07332) in the same assay as above.
Chain of Fes (P07332 whole entry, looked up): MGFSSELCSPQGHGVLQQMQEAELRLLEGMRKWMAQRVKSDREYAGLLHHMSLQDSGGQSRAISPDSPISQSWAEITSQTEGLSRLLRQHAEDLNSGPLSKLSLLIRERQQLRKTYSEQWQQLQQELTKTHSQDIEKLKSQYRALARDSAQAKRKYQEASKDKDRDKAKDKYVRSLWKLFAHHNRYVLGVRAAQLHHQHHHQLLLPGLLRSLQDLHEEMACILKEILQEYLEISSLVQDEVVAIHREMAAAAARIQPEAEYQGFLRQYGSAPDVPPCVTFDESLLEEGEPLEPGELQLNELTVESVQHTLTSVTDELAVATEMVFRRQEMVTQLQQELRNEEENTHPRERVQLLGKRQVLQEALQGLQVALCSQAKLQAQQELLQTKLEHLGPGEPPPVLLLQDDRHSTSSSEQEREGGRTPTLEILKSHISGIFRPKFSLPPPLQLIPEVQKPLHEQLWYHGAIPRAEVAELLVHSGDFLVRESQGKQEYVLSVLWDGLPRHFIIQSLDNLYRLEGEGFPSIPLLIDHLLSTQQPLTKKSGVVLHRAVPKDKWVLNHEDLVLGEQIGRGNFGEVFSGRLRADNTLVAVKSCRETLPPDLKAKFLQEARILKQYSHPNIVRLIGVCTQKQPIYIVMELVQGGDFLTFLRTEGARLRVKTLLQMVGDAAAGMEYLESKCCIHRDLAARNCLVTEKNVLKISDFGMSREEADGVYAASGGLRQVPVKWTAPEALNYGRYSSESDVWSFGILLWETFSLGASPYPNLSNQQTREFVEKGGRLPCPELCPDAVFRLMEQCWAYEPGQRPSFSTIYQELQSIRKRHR

Row | Sequence | phosphorylation enrichment
34 | TRNRDYDDIDD [TTYH2_Y424] | 0.917
35 | AVAFVYYKSIG [ADGRL4_Y301] | 1.29
36 | VRFTEYETQVK [TARDBP_Y155] | 0.896
37 | VCDSNYSASRW [LRP5_Y1552_D1551N] | 0.864
38 | FSVDSYDSSVR [KCNQ1_Y461_G460S] | 1.39
39 | GYRPVYSEDEQ [CHST6_Y362] | 1.24
40 | RGFRVCFTPDS [PTPRF_Y450_Y450C_YF] | 1.73
41 | YLENYYDLKKD [MMP3_Y42] | 1.27
42 | RGRSTYFWPRP [GAGE12J_Y9_YF] | 1.02
43 | YHIDHYLGKEM [G6PD_Y202_R198H] | 0.674
44 | YSKDNYKRVTG [PANK2_Y405] | 0.611
45 | FFRRHYPLTTL [TNS4_Y644] | 0.917
46 | LFQAKYQIRYR [CRLF1_Y272] | 1.33
47 | FGLDHYQCDCT [PTGS1_Y54_R53H] | 0.986
48 | IFGVSYDEYRY [CFTR_Y512] | 1.05
49 | HLVSEYQQYQD [TUBB3_Y422_D417H] | 1.61
50 | TTTQAYRVNER [PRKN_Y391_D394N] | 0.514

Row | Sequence | phosphorylation enrichment
51 | AEEEIYGIFGA [SRCtide_2014] | 1.31
52 | GSTLSYFGLAA [P2RX7_Y343] | 1.11
53 | RRIHSNRGHLW [VHL_Y112_Y112N] | 0.732
54 | VSGIPYGQPKQ [NEU1_Y251] | 0.57
55 | SELVCYDARVH [MET_Y971_R970C] | 1.14
56 | EKLQQYIAPGM [EPHB3_Y600] | 0.759
57 | QRPYVYYYSYL [PTEN_Y176_R173P] | 2.35
58 | PIPIKYKAMKK [MYD88_Y257_L252P] | 0.72
59 | FTGVEYSSCDT [EPHA3_Y937] | 1.12
60 | KNNDGYIDFAE [MCFD2_Y135_YF] | 1.06
61 | LGQRIYQYIRS [DYRK1B_Y271_Q275R] | 1.56
62 | GDDLSYGDVPP [IRS1_Y151_E147D] | 1.24
63 | ADKAAYLQSLN [MYH2_Y389] | 0.789
64 | FETVKYINNER [ABCB7_Y345_F346I_YF] | 0.954
65 | FSKRIYKGMVA [PCDH15_Y931] | 0.534
66 | FIRRDYEACKA [BBS4_Y48_K46R_YF] | 0.758

Each sequence was assayed against Jak2 (UniProt O60674) in the same assay as above.
Chain of Jak2 (O60674 whole entry, looked up): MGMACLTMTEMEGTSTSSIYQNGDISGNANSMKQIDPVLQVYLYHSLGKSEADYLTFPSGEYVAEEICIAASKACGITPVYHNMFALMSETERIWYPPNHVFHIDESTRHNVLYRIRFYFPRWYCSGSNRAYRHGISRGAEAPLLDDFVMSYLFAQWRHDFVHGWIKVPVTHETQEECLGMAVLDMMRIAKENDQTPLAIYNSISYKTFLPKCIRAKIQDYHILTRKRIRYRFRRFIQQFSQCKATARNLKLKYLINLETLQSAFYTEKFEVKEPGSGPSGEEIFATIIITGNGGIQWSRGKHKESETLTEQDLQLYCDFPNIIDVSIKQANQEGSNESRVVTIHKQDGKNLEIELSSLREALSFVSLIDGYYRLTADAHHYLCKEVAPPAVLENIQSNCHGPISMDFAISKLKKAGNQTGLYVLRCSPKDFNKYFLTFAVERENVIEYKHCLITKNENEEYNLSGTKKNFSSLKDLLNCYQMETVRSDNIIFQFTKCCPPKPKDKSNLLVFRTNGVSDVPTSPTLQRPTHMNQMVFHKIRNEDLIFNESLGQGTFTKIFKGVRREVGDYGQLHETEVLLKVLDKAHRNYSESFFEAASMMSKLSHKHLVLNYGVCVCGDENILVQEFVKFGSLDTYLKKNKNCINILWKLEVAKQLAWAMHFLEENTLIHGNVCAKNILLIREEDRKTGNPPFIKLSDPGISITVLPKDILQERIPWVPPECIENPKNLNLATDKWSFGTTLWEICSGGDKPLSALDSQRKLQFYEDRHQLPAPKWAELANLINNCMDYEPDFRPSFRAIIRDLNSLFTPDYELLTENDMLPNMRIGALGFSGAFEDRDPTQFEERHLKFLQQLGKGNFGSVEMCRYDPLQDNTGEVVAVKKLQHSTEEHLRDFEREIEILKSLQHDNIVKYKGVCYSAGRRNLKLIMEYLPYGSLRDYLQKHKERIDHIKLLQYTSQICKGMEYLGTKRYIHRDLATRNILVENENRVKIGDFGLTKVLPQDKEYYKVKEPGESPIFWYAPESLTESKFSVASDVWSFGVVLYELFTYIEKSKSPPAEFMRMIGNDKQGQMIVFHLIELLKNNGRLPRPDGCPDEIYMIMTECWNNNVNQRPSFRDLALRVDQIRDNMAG

Row | Sequence | phosphorylation enrichment
67 | TRNRDYDDIDD [TTYH2_Y424] | 0.734
68 | AVAFVYYKSIG [ADGRL4_Y301] | 1.2
69 | VRFTEYETQVK [TARDBP_Y155] | 0.761
70 | VCDSNYSASRW [LRP5_Y1552_D1551N] | 0.618
71 | FSVDSYDSSVR [KCNQ1_Y461_G460S] | 0.693
72 | GYRPVYSEDEQ [CHST6_Y362] | 1.16
73 | RGFRVCFTPDS [PTPRF_Y450_Y450C_YF] | 1.97
74 | YLENYYDLKKD [MMP3_Y42] | 1.61
75 | RGRSTYFWPRP [GAGE12J_Y9_YF] | 0.838
76 | YHIDHYLGKEM [G6PD_Y202_R198H] | 0.476
77 | YSKDNYKRVTG [PANK2_Y405] | 0.6
78 | FFRRHYPLTTL [TNS4_Y644] | 0.876
79 | LFQAKYQIRYR [CRLF1_Y272] | 0.949
80 | FGLDHYQCDCT [PTGS1_Y54_R53H] | 0.812
81 | IFGVSYDEYRY [CFTR_Y512] | 0.882
82 | HLVSEYQQYQD [TUBB3_Y422_D417H] | 1.29
83 | TTTQAYRVNER [PRKN_Y391_D394N] | 0.531

Row | Sequence | phosphorylation enrichment
84 | AEEEIYGIFGA [SRCtide_2014] | 1.35
85 | GSTLSYFGLAA [P2RX7_Y343] | 6.12
86 | RRIHSNRGHLW [VHL_Y112_Y112N] | 0.653
87 | VSGIPYGQPKQ [NEU1_Y251] | 0.522
88 | SELVCYDARVH [MET_Y971_R970C] | 0.867
89 | EKLQQYIAPGM [EPHB3_Y600] | 0.927
90 | QRPYVYYYSYL [PTEN_Y176_R173P] | 6.45
91 | PIPIKYKAMKK [MYD88_Y257_L252P] | 0.665
92 | FTGVEYSSCDT [EPHA3_Y937] | 0.905
93 | KNNDGYIDFAE [MCFD2_Y135_YF] | 0.903
94 | LGQRIYQYIRS [DYRK1B_Y271_Q275R] | 1.98
95 | GDDLSYGDVPP [IRS1_Y151_E147D] | 1.04
96 | ADKAAYLQSLN [MYH2_Y389] | 0.777
97 | FETVKYINNER [ABCB7_Y345_F346I_YF] | 0.712
98 | FSKRIYKGMVA [PCDH15_Y931] | 0.402
99 | FIRRDYEACKA [BBS4_Y48_K46R_YF] | 0.573

The sequences below were run against Hck (UniProt P08631) in the same assay as above.
Chain of Hck (P08631 whole entry, looked up): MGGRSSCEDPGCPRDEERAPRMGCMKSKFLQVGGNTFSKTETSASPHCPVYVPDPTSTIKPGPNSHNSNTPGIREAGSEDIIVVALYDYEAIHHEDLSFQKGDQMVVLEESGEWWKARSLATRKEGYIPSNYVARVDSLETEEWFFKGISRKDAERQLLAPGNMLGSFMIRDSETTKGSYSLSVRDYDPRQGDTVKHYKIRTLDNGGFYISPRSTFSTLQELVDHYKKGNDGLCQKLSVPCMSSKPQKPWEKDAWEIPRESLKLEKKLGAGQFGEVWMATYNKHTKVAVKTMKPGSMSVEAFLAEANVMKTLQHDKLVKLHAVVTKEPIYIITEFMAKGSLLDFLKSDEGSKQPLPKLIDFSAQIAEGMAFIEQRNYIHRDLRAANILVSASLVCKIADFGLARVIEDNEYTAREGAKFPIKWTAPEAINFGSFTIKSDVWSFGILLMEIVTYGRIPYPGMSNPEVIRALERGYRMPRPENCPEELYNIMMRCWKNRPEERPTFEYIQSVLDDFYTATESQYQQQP

Row | Sequence | phosphorylation enrichment
100 | TRNRDYDDIDD [TTYH2_Y424] | 0.527
101 | AVAFVYYKSIG [ADGRL4_Y301] | 0.463
102 | VRFTEYETQVK [TARDBP_Y155] | 0.519
103 | VCDSNYSASRW [LRP5_Y1552_D1551N] | 0.508
104 | FSVDSYDSSVR [KCNQ1_Y461_G460S] | 0.47
105 | GYRPVYSEDEQ [CHST6_Y362] | 0.49
106 | RGFRVCFTPDS [PTPRF_Y450_Y450C_YF] | 1.65
107 | YLENYYDLKKD [MMP3_Y42] | 3.17
108 | RGRSTYFWPRP [GAGE12J_Y9_YF] | 0.636
109 | YHIDHYLGKEM [G6PD_Y202_R198H] | 0.474
110 | YSKDNYKRVTG [PANK2_Y405] | 0.344
111 | FFRRHYPLTTL [TNS4_Y644] | 0.399
112 | LFQAKYQIRYR [CRLF1_Y272] | 0.763
113 | FGLDHYQCDCT [PTGS1_Y54_R53H] | 0.424
114 | IFGVSYDEYRY [CFTR_Y512] | 0.617
115 | HLVSEYQQYQD [TUBB3_Y422_D417H] | 1.21
116 | TTTQAYRVNER [PRKN_Y391_D394N] | 0.397

Row | Sequence | phosphorylation enrichment
117 | AEEEIYGIFGA [SRCtide_2014] | 4.39
118 | GSTLSYFGLAA [P2RX7_Y343] | 0.63
119 | RRIHSNRGHLW [VHL_Y112_Y112N] | 0.709
120 | VSGIPYGQPKQ [NEU1_Y251] | 0.419
121 | SELVCYDARVH [MET_Y971_R970C] | 0.816
122 | EKLQQYIAPGM [EPHB3_Y600] | 0.363
123 | QRPYVYYYSYL [PTEN_Y176_R173P] | 3.7
124 | PIPIKYKAMKK [MYD88_Y257_L252P] | 0.582
125 | FTGVEYSSCDT [EPHA3_Y937] | 0.545
126 | KNNDGYIDFAE [MCFD2_Y135_YF] | 0.513
127 | LGQRIYQYIRS [DYRK1B_Y271_Q275R] | 5.58
128 | GDDLSYGDVPP [IRS1_Y151_E147D] | 0.535
129 | ADKAAYLQSLN [MYH2_Y389] | 0.516
130 | FETVKYINNER [ABCB7_Y345_F346I_YF] | 0.472
131 | FSKRIYKGMVA [PCDH15_Y931] | 0.352
132 | FIRRDYEACKA [BBS4_Y48_K46R_YF] | 0.442
